According to paper PMC3830201, “Swiprosin-1 modulates actin dynamics by regulating the F-actin accessibility to cofilin” (Cellular and Molecular Life Sciences: CMLS, 2013):
Numbering of substitutions follows the chain as printed. Numbers in names are those of the source. One block for each binder: values may come before it.

Target: F-actin assembled from rabbit skeletal muscle G-actin (rabbit, UniProt P68135 1-377)
Test: co-sedimentation; purified GST or GST-Swiprosin-1 proteins incubated with 5 uM G-actin in actin polymerization buffer (MgCl2, KCl, ATP) at 25 C to assemble filaments; ultracentrifuged at 45,000 rpm; supernatant and pellet by SDS-PAGE, Coomassie
Conditions: both partners purified

binding result: binds
B1: GST-Swiprosin-1 fusion protein (wild type) (natural protein)
chain: MATDELATKLSRRLQMEGEGGGETPEQPGLNGAAAAAAGAPDEAAEALGSADCELSAKLLRRADLNQGIGEPQSPSRRVFNPYTEFKEFSRKQIKDMEKMFKQYDAGRDGFIDLMELKLMMEKLGAPQTHLGLKNMIKEVDEDFDSKLSFREFLLIFRKAAAGELQEDSGLCVLARLSEIDVSSEGVKGAKSFFEAKVQAINVSSRFEEEIKAEQEERKKQAEEMKQRKAAFKELQSTFK
notes: Swiprosin-1 (EF hand domain containing 2, EFHD2), human (hSwiprosin-1); Cloned into pGEX4T1; also called GST-Swiprosin-1-WT; GST-Sw-WT; source: purified GST fusion protein (pGEX4T1); also used on agarose beads

binding result: binds
B2: GST-Swiprosin-1 S183E (phosphorylation-mimicking mutant) (natural protein)
chain: B1 chain with S183E
notes: Swiprosin-1 (EFHD2), human (hSwiprosin-1); also called GST-Sw-S183E; source: purified GST fusion protein (pGEX4T1)

binding result: binds
B3: GST-Swiprosin-1 S183A (phosphorylation-deficient mutant) (natural protein)
chain: B1 chain with S183A
notes: Swiprosin-1 (EFHD2), human (hSwiprosin-1); also called GST-Sw-S183A; source: purified GST fusion protein (pGEX4T1)
